{"source": "paper PMC3961392", "molecular_target": "APOBEC3G (human), Q9HC16", "test": "SEC; 10-15 µg of purified enzyme (low enzyme concentration) on a 10 mL Superdex 200 column; 50 mM Tris pH 7.5, 200 mM NaCl; masses and oligomerization states from a Bio-Rad gel filtration standard curve", "conditions": "remark: other sources report otherwise", "data": [{"binder": "APOBEC3G, Q9HC16 1-384 (enzyme) MKPHFRNTVERMYRDTFSYNFYNRPILSRRNTVWLCYEVKTKGPSRPPLDAKIFRGQVYSELKYHPEMRFFHWFSKWRKLHRDQEYEVTWYISWSPCTKCTRDMATFLAEDPKVTLTIFVARLYYFWDPDYQEALRSLCQKRDGPRATMKIMNYDEFQHCWSKFVYSQRELFEPWNNLPKYYILLHIMLGEILRHSMDPPTFTFNFNNEPWVRGRHETYLCYEVERMHNDTWVLLNQRRGFLCNQAPHKHGFLEGRHAELCFLDVIPFWKLDLDQDYRVTCFTSWSPCFSCAQEMAKFISKNKHVSLCIFTARIYDDQGRCQEGLRTLAEAGAKISIMTYSEFKHCWDTFVDHQGCPFQPWDGLDEHSQDLSGRLRAILQNQEN", "values": [{"measurement": "stoichiometry N", "value": 2}]}]}
